According to patent US20180074053A1 (priority 2016, published 2018):
Non-standard residues stand in square brackets, D forms with d. No end group written: not given here.

Assays:
Experiment in all cases: cell-based or functional assay
[1] = target: MAS-related G-protein-coupled receptor member D (MRGD) (human, UniProt Q8TDS7 1-321)
NPBW1 = target: T1, NPBW1 (UniProt P48145 1-328)
T1 sequence (looked up): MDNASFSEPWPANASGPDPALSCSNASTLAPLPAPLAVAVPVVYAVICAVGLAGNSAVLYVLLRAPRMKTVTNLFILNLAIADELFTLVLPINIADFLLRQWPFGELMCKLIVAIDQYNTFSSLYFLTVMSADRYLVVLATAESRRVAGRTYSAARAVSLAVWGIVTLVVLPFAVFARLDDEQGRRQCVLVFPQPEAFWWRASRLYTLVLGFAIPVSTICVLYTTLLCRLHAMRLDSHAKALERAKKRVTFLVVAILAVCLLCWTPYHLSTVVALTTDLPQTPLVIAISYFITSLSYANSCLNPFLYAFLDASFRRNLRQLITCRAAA

[2] = target: Motilin (GPCR target; motilin receptor) (UniProt O43193 1-412, limits assumed)
Chain of Motilin (GPCR target; motilin receptor) (O43193 whole entry): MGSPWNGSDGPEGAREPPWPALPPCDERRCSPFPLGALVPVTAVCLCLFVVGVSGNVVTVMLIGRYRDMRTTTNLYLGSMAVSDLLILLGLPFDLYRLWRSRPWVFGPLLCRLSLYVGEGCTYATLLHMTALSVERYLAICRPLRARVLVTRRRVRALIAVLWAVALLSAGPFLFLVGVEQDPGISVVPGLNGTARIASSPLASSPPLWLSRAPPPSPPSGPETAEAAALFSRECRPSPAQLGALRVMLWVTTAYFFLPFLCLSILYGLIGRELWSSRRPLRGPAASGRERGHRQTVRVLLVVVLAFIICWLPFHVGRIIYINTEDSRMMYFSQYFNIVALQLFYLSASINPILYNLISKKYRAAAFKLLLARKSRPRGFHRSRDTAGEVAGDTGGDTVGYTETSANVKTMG

MCHR2 = MCHR2 (UniProt Q969V1 1-340, limits assumed)
Chain of MCHR2 (Q969V1 whole entry): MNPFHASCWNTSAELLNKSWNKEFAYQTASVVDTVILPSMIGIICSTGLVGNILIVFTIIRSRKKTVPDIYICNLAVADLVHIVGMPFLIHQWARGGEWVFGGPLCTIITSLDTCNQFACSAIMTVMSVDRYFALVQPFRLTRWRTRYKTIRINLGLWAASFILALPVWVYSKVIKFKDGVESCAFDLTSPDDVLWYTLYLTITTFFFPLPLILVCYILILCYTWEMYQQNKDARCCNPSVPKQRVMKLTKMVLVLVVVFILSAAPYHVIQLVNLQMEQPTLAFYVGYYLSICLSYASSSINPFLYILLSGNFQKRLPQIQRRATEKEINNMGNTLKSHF

NK1 = NK1 (UniProt P25103 1-407)
Chain of NK1 (P25103 whole entry): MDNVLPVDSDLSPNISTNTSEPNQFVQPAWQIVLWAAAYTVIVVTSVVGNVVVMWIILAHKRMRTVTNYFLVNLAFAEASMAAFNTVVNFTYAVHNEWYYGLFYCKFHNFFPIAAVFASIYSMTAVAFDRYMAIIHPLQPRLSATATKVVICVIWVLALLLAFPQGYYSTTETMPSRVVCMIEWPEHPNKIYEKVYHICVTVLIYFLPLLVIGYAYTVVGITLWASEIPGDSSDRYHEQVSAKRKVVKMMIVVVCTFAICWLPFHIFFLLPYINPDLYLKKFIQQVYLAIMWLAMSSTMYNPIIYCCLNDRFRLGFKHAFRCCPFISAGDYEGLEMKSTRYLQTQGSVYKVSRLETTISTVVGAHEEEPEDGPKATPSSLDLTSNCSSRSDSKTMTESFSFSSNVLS

MC2 = MC2 (UniProt Q01718 1-297)
Chain of MC2 (Q01718 whole entry): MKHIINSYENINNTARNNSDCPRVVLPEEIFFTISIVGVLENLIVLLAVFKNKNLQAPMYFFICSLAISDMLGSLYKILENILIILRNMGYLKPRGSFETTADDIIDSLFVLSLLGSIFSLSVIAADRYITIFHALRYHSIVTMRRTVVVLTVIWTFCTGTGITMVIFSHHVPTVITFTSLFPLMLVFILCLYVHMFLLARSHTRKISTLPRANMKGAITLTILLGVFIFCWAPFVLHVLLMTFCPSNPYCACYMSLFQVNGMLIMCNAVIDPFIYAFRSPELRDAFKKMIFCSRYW

MRGX2 = target: T2, MRGX2 (UniProt Q96LB1 1-330, limits assumed)
T2 sequence (looked up): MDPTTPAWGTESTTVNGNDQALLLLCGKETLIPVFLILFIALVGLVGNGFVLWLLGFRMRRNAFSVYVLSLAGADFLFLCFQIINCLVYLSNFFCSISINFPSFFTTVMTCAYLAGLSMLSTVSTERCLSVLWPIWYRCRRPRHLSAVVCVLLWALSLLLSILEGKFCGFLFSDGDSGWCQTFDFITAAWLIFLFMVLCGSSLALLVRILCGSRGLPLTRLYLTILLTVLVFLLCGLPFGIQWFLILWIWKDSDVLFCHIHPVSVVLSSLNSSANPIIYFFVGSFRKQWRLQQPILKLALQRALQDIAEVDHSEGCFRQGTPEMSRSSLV

NK2 = target: T3, NK2 (UniProt P21452 1-398)
T3 sequence (looked up): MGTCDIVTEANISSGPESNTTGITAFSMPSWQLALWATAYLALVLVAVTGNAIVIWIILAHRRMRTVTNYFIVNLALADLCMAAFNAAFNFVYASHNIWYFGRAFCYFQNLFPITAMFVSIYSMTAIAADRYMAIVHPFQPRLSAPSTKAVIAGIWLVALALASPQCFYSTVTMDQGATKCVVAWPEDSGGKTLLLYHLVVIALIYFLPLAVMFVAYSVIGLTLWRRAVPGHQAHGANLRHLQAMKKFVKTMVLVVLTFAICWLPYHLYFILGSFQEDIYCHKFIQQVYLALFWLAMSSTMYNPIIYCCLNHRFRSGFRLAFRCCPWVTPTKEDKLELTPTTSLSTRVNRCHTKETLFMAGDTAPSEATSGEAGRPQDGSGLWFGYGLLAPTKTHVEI

NMUR2 = NMUR2 (UniProt Q9GZQ4 1-415, limits assumed)
Chain of NMUR2 (Q9GZQ4 whole entry): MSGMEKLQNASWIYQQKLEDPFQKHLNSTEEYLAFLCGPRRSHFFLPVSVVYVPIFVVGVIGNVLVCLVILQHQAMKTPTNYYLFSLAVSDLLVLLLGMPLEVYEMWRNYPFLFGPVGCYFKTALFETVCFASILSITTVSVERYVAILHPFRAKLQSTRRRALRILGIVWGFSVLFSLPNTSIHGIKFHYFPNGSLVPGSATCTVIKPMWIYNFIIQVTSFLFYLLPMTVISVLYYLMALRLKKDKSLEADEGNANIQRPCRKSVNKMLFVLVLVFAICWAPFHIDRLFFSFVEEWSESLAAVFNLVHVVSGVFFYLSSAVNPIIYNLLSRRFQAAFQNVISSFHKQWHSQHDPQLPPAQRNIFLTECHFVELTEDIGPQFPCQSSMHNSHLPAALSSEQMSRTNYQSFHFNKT

MC5 = MC5 (UniProt P33032 1-325)
Chain of MC5 (P33032 whole entry): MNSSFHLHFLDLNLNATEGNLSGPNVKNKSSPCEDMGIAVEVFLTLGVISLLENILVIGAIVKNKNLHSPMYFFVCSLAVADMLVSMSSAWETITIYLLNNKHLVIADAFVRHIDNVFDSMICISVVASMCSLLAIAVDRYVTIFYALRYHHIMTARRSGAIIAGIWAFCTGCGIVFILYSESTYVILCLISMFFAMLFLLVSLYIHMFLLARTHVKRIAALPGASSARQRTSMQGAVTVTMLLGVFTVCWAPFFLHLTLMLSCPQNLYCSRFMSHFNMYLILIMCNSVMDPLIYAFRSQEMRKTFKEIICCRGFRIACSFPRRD

NOP = NOP (UniProt P41146 1-370)
Chain of NOP (P41146 whole entry): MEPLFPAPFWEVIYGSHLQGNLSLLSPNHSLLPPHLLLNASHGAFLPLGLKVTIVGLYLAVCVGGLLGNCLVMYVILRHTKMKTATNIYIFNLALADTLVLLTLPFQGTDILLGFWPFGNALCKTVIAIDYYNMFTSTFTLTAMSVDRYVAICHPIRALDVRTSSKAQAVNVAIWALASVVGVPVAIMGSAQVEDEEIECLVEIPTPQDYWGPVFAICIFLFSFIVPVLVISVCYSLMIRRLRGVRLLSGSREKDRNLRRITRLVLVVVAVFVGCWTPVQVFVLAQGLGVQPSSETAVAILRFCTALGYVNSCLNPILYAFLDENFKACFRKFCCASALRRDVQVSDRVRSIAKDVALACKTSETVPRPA

[3] = target: GPCR 109a, the nicotinic acid receptor (human, UniProt Q8TDS4 1-363)
Chain of GPCR 109a, the nicotinic acid receptor (Q8TDS4 whole entry): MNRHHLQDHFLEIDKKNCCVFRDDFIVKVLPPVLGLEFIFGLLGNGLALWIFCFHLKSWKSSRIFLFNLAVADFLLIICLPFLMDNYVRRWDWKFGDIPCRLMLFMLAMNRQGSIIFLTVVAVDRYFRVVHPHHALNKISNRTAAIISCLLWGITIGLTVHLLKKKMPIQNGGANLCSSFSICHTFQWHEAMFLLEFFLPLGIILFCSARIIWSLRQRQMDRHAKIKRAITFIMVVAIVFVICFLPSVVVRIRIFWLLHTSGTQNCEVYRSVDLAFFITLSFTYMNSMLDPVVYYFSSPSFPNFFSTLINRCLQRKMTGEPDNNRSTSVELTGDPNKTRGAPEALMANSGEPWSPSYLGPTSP

MCHR1 = MCHR1 (UniProt Q99705 1-353, limits assumed)
Chain of MCHR1 (Q99705 whole entry): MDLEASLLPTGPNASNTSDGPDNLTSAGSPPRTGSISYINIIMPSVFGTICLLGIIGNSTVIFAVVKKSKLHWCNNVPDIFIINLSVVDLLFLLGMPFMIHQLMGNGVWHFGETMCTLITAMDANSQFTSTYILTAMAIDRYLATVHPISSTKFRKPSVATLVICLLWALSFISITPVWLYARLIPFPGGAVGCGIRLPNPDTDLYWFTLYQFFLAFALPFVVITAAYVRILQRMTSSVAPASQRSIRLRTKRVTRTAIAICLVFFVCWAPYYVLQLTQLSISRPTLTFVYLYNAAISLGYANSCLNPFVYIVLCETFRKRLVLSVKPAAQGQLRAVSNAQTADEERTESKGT

Chain of MAS-related G-protein-coupled receptor member D (MRGD) (Q8TDS7 whole entry): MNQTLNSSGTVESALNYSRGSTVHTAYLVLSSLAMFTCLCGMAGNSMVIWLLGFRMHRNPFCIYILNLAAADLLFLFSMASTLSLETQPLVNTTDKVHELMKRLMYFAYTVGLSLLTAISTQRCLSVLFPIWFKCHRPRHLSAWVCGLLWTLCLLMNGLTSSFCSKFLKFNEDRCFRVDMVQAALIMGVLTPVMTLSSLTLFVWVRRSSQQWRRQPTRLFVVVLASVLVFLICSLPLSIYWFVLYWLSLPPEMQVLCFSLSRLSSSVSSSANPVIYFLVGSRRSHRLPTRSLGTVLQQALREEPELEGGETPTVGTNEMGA

Gly-Gly-[dL] [DT-110, tripeptide glycine-glycine-D-leucine (GGdL)]
percent activation (calcium flux, GPCRProfiler), DT-110 @ 1.25 mM, Avg. [1]: 69.2%
percent activation (calcium flux, GPCRProfiler), DT-110 @ 1.25 mM, n1 [1]: 76.5%
percent activation (calcium flux, GPCRProfiler), DT-110 @ 1.25 mM, n2 [1]: 62%
percent activation (calcium flux, GPCRProfiler), DT-110 @ 12.5 mM, Avg. [1]: 64.5%
percent activation (calcium flux, GPCRProfiler), DT-110 @ 12.5 mM, n1 [1]: 60.7%
percent activation (calcium flux, GPCRProfiler), DT-110 @ 12.5 mM, n2 [1]: 68.3%
percent activation (calcium flux, GPCRProfiler), DT-110 @ 1.25 mM, Avg. (NPBW1): 0.2%
percent activation (calcium flux, GPCRProfiler), DT-110 @ 1.25 mM, n1 (NPBW1): 1.6%
percent activation (calcium flux, GPCRProfiler), DT-110 @ 1.25 mM, n2 (NPBW1): -1.1%
percent activation (calcium flux, GPCRProfiler), DT-110 @ 12.5 mM, Avg. (NPBW1): -0.9%
percent activation (calcium flux, GPCRProfiler), DT-110 @ 12.5 mM, n1 (NPBW1): -0.8%
percent activation (calcium flux, GPCRProfiler), DT-110 @ 12.5 mM, n2 (NPBW1): -0.9%
percent activation (calcium flux, GPCRProfiler), DT-110 @ 1.25 mM, Avg. [2]: -0.3%
percent activation (calcium flux, GPCRProfiler), DT-110 @ 1.25 mM, n1 [2]: -0.3%
percent activation (calcium flux, GPCRProfiler), DT-110 @ 1.25 mM, n2 [2]: -0.3%
percent activation (calcium flux, GPCRProfiler), DT-110 @ 12.5 mM, Avg. [2]: -0.4%
percent activation (calcium flux, GPCRProfiler), DT-110 @ 12.5 mM, n1 [2]: -0.3%
percent activation (calcium flux, GPCRProfiler), DT-110 @ 12.5 mM, n2 [2]: -0.5%
percent activation (calcium flux, GPCRProfiler), DT-110 @ 1.25 mM, Avg. (MCHR2): 0.5%
percent activation (calcium flux, GPCRProfiler), DT-110 @ 1.25 mM, n1 (MCHR2): 0.1%
percent activation (calcium flux, GPCRProfiler), DT-110 @ 1.25 mM, n2 (MCHR2): 0.8%
percent activation (calcium flux, GPCRProfiler), DT-110 @ 12.5 mM, Avg. (MCHR2): -0.9%
percent activation (calcium flux, GPCRProfiler), DT-110 @ 12.5 mM, n1 (MCHR2): -0.8%
percent activation (calcium flux, GPCRProfiler), DT-110 @ 12.5 mM, n2 (MCHR2): -0.9%
percent activation (calcium flux, GPCRProfiler), DT-110 @ 1.25 mM, Avg. (NK1): -0.9%
percent activation (calcium flux, GPCRProfiler), DT-110 @ 1.25 mM, n1 (NK1): -1%
percent activation (calcium flux, GPCRProfiler), DT-110 @ 1.25 mM, n2 (NK1): -0.9%
percent activation (calcium flux, GPCRProfiler), DT-110 @ 12.5 mM, Avg. (NK1): -1.1%
percent activation (calcium flux, GPCRProfiler), DT-110 @ 12.5 mM, n1 (NK1): -1%
percent activation (calcium flux, GPCRProfiler), DT-110 @ 12.5 mM, n2 (NK1): -1.1%
percent activation (calcium flux, GPCRProfiler), DT-110 @ 1.25 mM, Avg. (MC2): -0.7%
percent activation (calcium flux, GPCRProfiler), DT-110 @ 1.25 mM, n1 (MC2): 0.6%
percent activation (calcium flux, GPCRProfiler), DT-110 @ 1.25 mM, n2 (MC2): -2%
percent activation (calcium flux, GPCRProfiler), DT-110 @ 12.5 mM, Avg. (MC2): -1%
percent activation (calcium flux, GPCRProfiler), DT-110 @ 12.5 mM, n1 (MC2): -1%
percent activation (calcium flux, GPCRProfiler), DT-110 @ 12.5 mM, n2 (MC2): -0.9%
percent activation (calcium flux, GPCRProfiler), DT-110 @ 1.25 mM, Avg. (MRGX2): -0.2%
percent activation (calcium flux, GPCRProfiler), DT-110 @ 1.25 mM, n1 (MRGX2): 0%
percent activation (calcium flux, GPCRProfiler), DT-110 @ 1.25 mM, n2 (MRGX2): -0.4%
percent activation (calcium flux, GPCRProfiler), DT-110 @ 12.5 mM, Avg. (MRGX2): 0%
percent activation (calcium flux, GPCRProfiler), DT-110 @ 12.5 mM, n1 (MRGX2): 0.4%
percent activation (calcium flux, GPCRProfiler), DT-110 @ 12.5 mM, n2 (MRGX2): -0.4%
percent activation (calcium flux, GPCRProfiler), DT-110 @ 1.25 mM, Avg. (NK2): -9.5%
percent activation (calcium flux, GPCRProfiler), DT-110 @ 1.25 mM, n1 (NK2): -9.4%
percent activation (calcium flux, GPCRProfiler), DT-110 @ 1.25 mM, n2 (NK2): -9.6%
percent activation (calcium flux, GPCRProfiler), DT-110 @ 12.5 mM, Avg. (NK2): -9.6%
percent activation (calcium flux, GPCRProfiler), DT-110 @ 12.5 mM, n1 (NK2): -9.5%
percent activation (calcium flux, GPCRProfiler), DT-110 @ 12.5 mM, n2 (NK2): -9.7%
percent activation (calcium flux, GPCRProfiler), DT-110 @ 1.25 mM, Avg. (NMUR2): 2.4%
percent activation (calcium flux, GPCRProfiler), DT-110 @ 1.25 mM, n1 (NMUR2): 0.9%
percent activation (calcium flux, GPCRProfiler), DT-110 @ 1.25 mM, n2 (NMUR2): 3.9%
percent activation (calcium flux, GPCRProfiler), DT-110 @ 12.5 mM, Avg. (NMUR2): -0.9%
percent activation (calcium flux, GPCRProfiler), DT-110 @ 12.5 mM, n1 (NMUR2): 0.4%
percent activation (calcium flux, GPCRProfiler), DT-110 @ 12.5 mM, n2 (NMUR2): -2.2%
percent activation (calcium flux, GPCRProfiler), DT-110 @ 1.25 mM, Avg. (MC5): 0%
percent activation (calcium flux, GPCRProfiler), DT-110 @ 1.25 mM, n1 (MC5): 0.7%
percent activation (calcium flux, GPCRProfiler), DT-110 @ 1.25 mM, n2 (MC5): -0.8%
percent activation (calcium flux, GPCRProfiler), DT-110 @ 12.5 mM, Avg. (MC5): -0.3%
percent activation (calcium flux, GPCRProfiler), DT-110 @ 12.5 mM, n1 (MC5): -0.6%
percent activation (calcium flux, GPCRProfiler), DT-110 @ 12.5 mM, n2 (MC5): 0%
percent activation (calcium flux, GPCRProfiler), DT-110 @ 1.25 mM, Avg. (NOP): -0.1%
percent activation (calcium flux, GPCRProfiler), DT-110 @ 1.25 mM, n1 (NOP): -7.8%
percent activation (calcium flux, GPCRProfiler), DT-110 @ 1.25 mM, n2 (NOP): 7.6%
percent activation (calcium flux, GPCRProfiler), DT-110 @ 12.5 mM, Avg. (NOP): -2.3%
percent activation (calcium flux, GPCRProfiler), DT-110 @ 12.5 mM, n1 (NOP): 3.4%
percent activation (calcium flux, GPCRProfiler), DT-110 @ 12.5 mM, n2 (NOP): -8%
percent activation (calcium flux, GPCRProfiler), DT-110 @ 1.25 mM, Avg. [3]: -8.1%
percent activation (calcium flux, GPCRProfiler), DT-110 @ 1.25 mM, n1 [3]: -8.1%
percent activation (calcium flux, GPCRProfiler), DT-110 @ 1.25 mM, n2 [3]: -8%
percent activation (calcium flux, GPCRProfiler), DT-110 @ 12.5 mM, Avg. [3]: 54.3%
percent activation (calcium flux, GPCRProfiler), DT-110 @ 12.5 mM, n1 [3]: 52.9%
percent activation (calcium flux, GPCRProfiler), DT-110 @ 12.5 mM, n2 [3]: 55.7%
percent activation (calcium flux, GPCRProfiler), DT-110 @ 1.25 mM, Avg. (MCHR1): 0.4%
percent activation (calcium flux, GPCRProfiler), DT-110 @ 1.25 mM, n1 (MCHR1): 0.2%
percent activation (calcium flux, GPCRProfiler), DT-110 @ 1.25 mM, n2 (MCHR1): 0.7%
percent activation (calcium flux, GPCRProfiler), DT-110 @ 12.5 mM, Avg. (MCHR1): -0.1%
percent activation (calcium flux, GPCRProfiler), DT-110 @ 12.5 mM, n1 (MCHR1): -0.5%
percent activation (calcium flux, GPCRProfiler), DT-110 @ 12.5 mM, n2 (MCHR1): 0.3%
